Results on 3 molecules are retold here after patent US20080044413A1 (published 2008).

In experiment [1] the target is T1, Human EphA2-Fc fusion protein (human, UniProt P29317 24-537).
T1 construct: extracellular domain; Expressed in HEK 293 cells; Biotinylated in the capture ELISAs; also called soluble EphA2 Fc fusion protein; not shown: Fc portion of a human IgG1
The experiment is described as follows: method not stated in this paragraph (framework shuffling).

The target in experiment [2] is T1, Human EphA2-Fc fusion protein. Briefly: SPR (Biacore 3000), soluble IgG on immobilized EphA2-Fc. A general note: Surface plasmon resonance follows binding to a sensor surface in real time, without labels.
For experiment [3] the target is unchanged. The experiment is described as follows: method and format of the clone not stated in this paragraph (framework shuffling).
A further experiment deals with T2, cynomolgus EphA2 (cynomolgus, UniProt Q1KL86 24-976).
T2 construct: whole, on cells; also called cynomolgus EphA2 expressed on transfected CHO cells
The experiment is described as follows: flow cytometry on cynomolgus EphA2 transfected CHO cells, antibody 10 µg/ml, AlexaFluor 488 anti-mouse or anti-human IgG (H+L). As to the method: Subconfluent monolayers of SW480 colon carcinoma or cynomolgus EphA2 transfected CHO cells were quickly trypsinized, washed, counted, plated into 96-well round bottom plates, and stained with 10 μg/ml of a negative control antibody (R347), the anti-human EphA2 murine antibody, EA2 (Coffman 2003), or humanized antibodies, 3F2 and 4H5. Cells were resuspended in AlexaFluor 488 anti-mouse or anti-human IgG H+L (Invitrogen) and then analyzed by flow cytometry using a FACSCalibur (Becton Dickinson).
Background: In flow cytometry, cells or beads pass a laser one at a time.

Experiment [4] has as its target T3, human EphA2 (human, UniProt P29317 24-976). Briefly: cell-based or functional assay.
The target in experiment [5] is T3, human EphA2. Briefly: cell-based or functional assay. This is another data set of the same source.
Experiment [6] deals with T3, human EphA2. Briefly: cell-based or functional assay. The source holds these as a separate data set.
Experiment [7] concerns the target T3, human EphA2. The experiment is described as follows: cell-based or functional assay. This is another data set of the same source.
The target of experiment [8] is T3, human EphA2. Briefly: cell-based or functional assay. The source holds these as a separate data set.
Experiment [9] addresses T3, human EphA2. Briefly: cell-based or functional assay. This is another data set of the same source.
Experiment [10] addresses T1, Human EphA2-Fc fusion protein. Briefly: SPR, immobilized EphA2-Fc surface; (MT). The text has this: (§1) The formation and dissociation of BiTE/EphA2 complexes was monitored by surface plasmon resonance using a Biacore 3000 system. For this purpose, EphA2 Fc fusion protein was immobilized on a sensor chip with a CM5 carboxymethylated dextran matrix. Optimal immobilization conditions were identified through pH scouting (sodium acetate pH 4.0 to pH 5.5; disodium tetraborate pH 8.5). The optimal pH value was pH 4.0. After immobilization of 1000 RU to flow cell 2, 5,000 RU to flow cell 3 and 400 RU to flow cell 4, excess reactive groups were deactivated by ethanolamine. The affinity of the anti-EphA2 BiTE to immobilized EphA2 was determined by injecting different concentrations of the analyte deimmunized anti-CD3×EA2 VHVL diluted in HBS-EP buffer. To regenerate the surface, REGEN buffer (50 mM NaOH; 20 mM MES; 1 mM NaCl pH 6.4) was used.

Experiment [11] shares this target. Briefly: SPR, immobilized EphA2-Fc surface; (MedI).
In a further experiment the target is T4, soluble CD3εγ (human, UniProt P07766 23-118; P09693 23-103).
T4 construct: Amine-coupled to a CM5 chip
The experiment is described as follows: SPR, immobilized soluble CD3εγ surface; estimate, biphasic association.

Experiment [12] addresses T1, Human EphA2-Fc fusion protein. The experiment is described as follows: SPR (Biacore 3000), EphA2 Fc fusion protein immobilized on CM5, BiTE as analyte.
Text: as §1

T2 sequence (Q1KL86 24-976): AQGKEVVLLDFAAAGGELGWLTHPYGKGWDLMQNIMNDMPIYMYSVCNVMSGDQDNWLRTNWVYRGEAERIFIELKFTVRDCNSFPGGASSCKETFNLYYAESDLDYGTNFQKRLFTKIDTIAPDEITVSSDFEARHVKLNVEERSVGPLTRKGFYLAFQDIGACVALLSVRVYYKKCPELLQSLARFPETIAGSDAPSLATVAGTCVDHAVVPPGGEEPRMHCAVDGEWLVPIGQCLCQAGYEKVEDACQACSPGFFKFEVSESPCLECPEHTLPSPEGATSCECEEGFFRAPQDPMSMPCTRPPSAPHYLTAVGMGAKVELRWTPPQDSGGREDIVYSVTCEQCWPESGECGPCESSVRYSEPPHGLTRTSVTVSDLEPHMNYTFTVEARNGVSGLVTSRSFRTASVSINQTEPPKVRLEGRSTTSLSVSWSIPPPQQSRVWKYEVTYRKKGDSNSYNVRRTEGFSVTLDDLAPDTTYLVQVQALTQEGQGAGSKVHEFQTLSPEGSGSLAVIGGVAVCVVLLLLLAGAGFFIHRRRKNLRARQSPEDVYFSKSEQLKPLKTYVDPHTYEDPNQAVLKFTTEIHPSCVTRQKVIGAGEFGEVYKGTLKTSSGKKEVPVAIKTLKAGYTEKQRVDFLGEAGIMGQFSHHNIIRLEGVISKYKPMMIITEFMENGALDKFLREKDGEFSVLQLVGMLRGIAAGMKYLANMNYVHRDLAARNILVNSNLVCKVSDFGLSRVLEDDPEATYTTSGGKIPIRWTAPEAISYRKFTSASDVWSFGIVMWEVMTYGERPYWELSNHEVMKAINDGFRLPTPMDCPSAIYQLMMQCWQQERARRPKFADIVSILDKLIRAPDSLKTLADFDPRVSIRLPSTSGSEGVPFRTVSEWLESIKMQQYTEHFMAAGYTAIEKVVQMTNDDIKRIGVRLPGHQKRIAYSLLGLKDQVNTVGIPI

B1: Humanized 2G6 (antibody, human IgG1, V domains shown)
VH: EVQLVESGGGVVRPGGSLRLSCAASGFTVSDYSMNWVRQAPGKGLEWIGFIRNKANDYTTEYSASVKGRFTISRDDSKNTLYLQMNSLKTEDTAVYYCTTYPRYHAMDSWGQGTMVTVSS
VL: AIQLTQSPSSLSASVGDRVTITCRASQSISNNLHWYLQKPGQSPQLLIYYVFQSISGVPSRFSGSGSGTDFTLTISSLQPEDFATYYCQQSNSWPLTFGGGTKLEIK
notes: Framework-shuffled humanized B233; human IgG1 with human kappa chain in the Biacore analysis
As usually defined, the Kd is the concentration at which binding is half-saturated. By koff is commonly meant the rate constant with which the complex falls apart. The low end stands for a long-lived complex, the high end for a short-lived complex. Usually kon stands for the second-order rate constant of association. Higher therefore signals faster complex formation. For the molecule B1, the “fold loss of affinity compared with chimaeric mAb B233” value in experiment [1] is about 10 fold. In experiment [2], this molecule returned a Kd of 0.003 µM, a koff of 0.00019 s⁻¹ and an on-rate constant (kon) of 64000 M⁻¹ s⁻¹.

B2: humanized anti-human EphA2 mAb 4H5 (antibody, V domains shown)
VH: QVQLLESGGGLVQPGGSLRLSCAASGFTFSSYTMSWVRQAPGQALEWMGTISSGGTYTYYPDSVKGRFTISRDNAKNSLYLQMNSLRAEDTAVYYCAREAIFTYWGRGTLVTVSS
VL: DIQLTQSPSSLSASVGDRVTITCKASQDINNYLSWYQQKPGQAPRLLIYRANRLVDGVPDRFSGSGYGTDFTLTINNIESEDAAYYFCLKYDVFPYTFGQGTKVEIK
notes: Humanized from EA2 by framework shuffling; detected with anti-human IgG; also called humanized clone 4H5
For the molecule B2, in experiment [3], the “fold increase of affinity compared with chimaeric Fab EA2” value was about 20 fold. Moreover, in the experiment with cynomolgus EphA2, the binding result is “binds”.

B3: EphA2-BiTE deimmunized anti-CD3 (VH/VL) × EA2 (VH/VL) (bispecific antibody)
chain: DVQLVQSGAEVKKPGASVKVSCKASGYTFTRYTMHWVRQAPGQGLEWIGYINPSRGYTNYADSVKGRFTITTDKSTSTAYMELSSLRSEDTATYYCARYYDDHYCLDYWGQGTTVTVSSGEGTSTGSGGSGGSGGADDIVLTQSPATLSLSPGERATLSCRASQSVSYMNWYQQKPGKAPKRWIYDTSKVASGVPARFSGSGSGTDYSLTINSLEAEDAATYYCQQWSSNPLTFGGGTKVEIKSGGGGSDVKLVESGGGLVKPGGSLKLSCAASGFTFSSYTMSWVRQTPEKRLEWVATISSGGTYTYYPDSVKGRFTISRDNAKNTLYLQMSSLKSEDTAMYYCTREAIFTYWGQGTLVTVSSGGGGSGGGGSGGGGSDIKMTQSPSSMYASLGERVTITCKASQDINNYLSWFQQKPGKSPKTLIYRANRLVDGVPSRFSGSGSGQDYSLTISSLEYEDMGIYYCLKYDEFPYTFGGGTKLEIKHHHHHH
notes: C-terminal His tag; Purified monomer from CHO cells; also called deimmunized anti-CD3×EA2 (VH/VL); deimmunized anti-CD3-EA2(VH/VL)
Take B3: in the experiment with human EphA2 [4], the “EC50 of tumor cell killing, ACHN cells” value is 3 ng/mL; the “EC50 of tumor cell killing, Caki 2 cells” value was 30 ng/mL; the “EC50 of tumor cell killing, DU145 cells” value was determined as 0.8 ng/mL; the “EC50 of tumor cell killing, PC3 cells” value came out at 6 ng/mL. Further, in the experiment with human EphA2 [4], the “EC50 of tumor cell killing, SW480 cells” value worked out at 6 ng/mL and the “median EC50 of tumor cell killing, SW480 targets, 49 donors” value was 24 ng/mL. Also, in the experiment with human EphA2 [5], the “EC50 of redirected lysis, 51Cr release, A549” value was determined as 123 ng/mL; the “EC50 of redirected lysis, 51Cr release, A549, second experiment” value was determined as 24.8 ng/mL; the “EC50 of redirected lysis, 51Cr release, MDA MB231” value is 5.8 ng/mL; the “EC50 of redirected lysis, 51Cr release, MDA MB231, second experiment” value was determined as 8.6 ng/mL. In addition, in the experiment with human EphA2 [6], the “EC50 of redirected lysis, A549, PBMC effectors, batch 040507PMa02” value was determined as 32.8 ng/mL; the “EC50 of redirected lysis, A549, PBMC effectors, batch 040907USy02” value came to 10.2 ng/mL; the “EC50 of redirected lysis, A549, stimulated CD8 T-cells, batch 040507PMa02” value was found to be 3.3 ng/mL; the “EC50 of redirected lysis, A549, stimulated CD8 T-cells, batch 040907USy02” value came out at 1.6 ng/mL. Further, in the experiment with human EphA2 [6], the “EC50 of redirected lysis, MDA MB 231, PBMC effectors, batch 040507PMa02” value worked out at 7.6 ng/mL; the “EC50 of redirected lysis, MDA MB 231, PBMC effectors, batch 040907USy02” value was determined as 3.2 ng/mL; the “EC50 of redirected lysis, MDA MB 231, stimulated CD8 T-cells, batch 040507PMa02” value is 0.7 ng/mL; the “EC50 of redirected lysis, MDA MB 231, stimulated CD8 T-cells, batch 040907USy02” value amounted to 0.5 ng/mL. Also, in the experiment with human EphA2 [7], the “EC50 of redirected lysis, A549, NK cell-depleted PBMC of Donor #1” value was 20.9 ng/mL; the “EC50 of redirected lysis, A549, NK cell-depleted PBMC of Donor #2” value amounted to 22.6 ng/mL; the “EC50 of redirected lysis, A549, NK cell-depleted PBMC of Donor #3” value was 24.8 ng/mL; the “EC50 of redirected lysis, A549, NK cell-depleted PBMC of Donor #4” value is 28.5 ng/mL. For the same molecule, in the experiment with human EphA2 [7], the “EC50 of redirected lysis, A549, NK cell-depleted PBMC of Donor #6” value was determined as 32.8 ng/mL; the “EC50 of redirected lysis, A549, NK cell-depleted PBMC of Donor #7” value worked out at 6.6 ng/mL; the “EC50 of redirected lysis, MDA-MB 231, NK cell-depleted PBMC of Donor #1” value was found to be 15.4 ng/mL; the “EC50 of redirected lysis, MDA-MB 231, NK cell-depleted PBMC of Donor #2” value worked out at 5.8 ng/mL. In the experiment with human EphA2 [7], the “EC50 of redirected lysis, MDA-MB 231, NK cell-depleted PBMC of Donor #3” value turned out to be 8.6 ng/mL; the “EC50 of redirected lysis, MDA-MB 231, NK cell-depleted PBMC of Donor #4” value is 23.9 ng/mL; the “EC50 of redirected lysis, MDA-MB 231, NK cell-depleted PBMC of Donor #5” value amounted to 1.9 ng/mL; the “EC50 of redirected lysis, MDA-MB 231, NK cell-depleted PBMC of Donor #6” value was 7.6 ng/mL. For the same molecule, the “EC50 of redirected lysis, MDA-MB 231, NK cell-depleted PBMC of Donor #7” value with human EphA2 [7] was found to be 3.2 ng/mL. Moreover, the “EC 50 of lysis, 51Cr release, B16 F10 EphA2 transfected cells, stimulated human CD8 T-cells, E:T 10:1, 18 h” value in the experiment with human EphA2 [8] is 21.7 ng/mL. Also, in the experiment with human EphA2 [9], the “EC50 of cytotoxic activity, 51Cr release, MDA-MB231 target cells, NK cell-depleted PBMC, E:T 10:1, 18 h; BiTE diluted directly before assay in medium (control)” value was determined as 1.9 ng/mL; the “EC50 of cytotoxic activity, 51Cr release, MDA-MB231 target cells, NK cell-depleted PBMC, E:T 10:1, 18 h; BiTE diluted directly before assay in plasma (control)” value was found to be 2 ng/mL; the “EC50 of cytotoxic activity, 51Cr release, MDA-MB231 target cells, NK cell-depleted PBMC, E:T 10:1, 18 h; BiTE kept 24 h in plasma at 4° C. before the assay” value turned out to be 2.2 ng/mL; the “EC50 of cytotoxic activity, 51Cr release, MDA-MB231 target cells, NK cell-depleted PBMC, E:T 10:1, 18 h; BiTE kept 24 h in plasma at 37° C. before the assay” value worked out at 3.1 ng/mL. This molecule also had a dissociation constant Kd in experiment [10] of 0.045 µM. The same molecule had a dissociation constant Kd in [11] of 0.113 µM. For the same molecule, in the experiment with soluble CD3εγ, the Kd is 0.4 to 0.5 µM. In [12], this molecule returned a Kd of 0.0446 µM, a koff of 0.0426 s⁻¹ and a kon of 956000 M⁻¹ s⁻¹.
